Results reported in EP3061768A1 (dated 2016).
Changes are numbered by the printed parent chain.

Assays:
neutravidin = molecular target: T1, neutravidin (UniProt P02701 25-152); assay: phage ELISA, crude phage extract, anti-M13-HRP
T1 construct: Control wells without biotinylated IL-1 Beta

human IL-1 Beta (human) [1] = molecular target: human IL-1 Beta (human) (UniProt P01584); assay: cell-based or functional assay
human IL-1 Beta (human) [2] = molecular target: human IL-1 Beta (human) (UniProt P01584); assay: ELISA based competition assay; competitor: antagonistic reference mouse mAb (Diaclone)
human IL-1 Beta (human) [3] = molecular target: human IL-1 Beta (human) (UniProt P01584); assay: competition ELISA, periplasmic extract; competitor: coated mouse mAb (Diaclone); reduced signal means competition

Chain of human IL-1 Beta (human) (P01584 117-269 limits assumed): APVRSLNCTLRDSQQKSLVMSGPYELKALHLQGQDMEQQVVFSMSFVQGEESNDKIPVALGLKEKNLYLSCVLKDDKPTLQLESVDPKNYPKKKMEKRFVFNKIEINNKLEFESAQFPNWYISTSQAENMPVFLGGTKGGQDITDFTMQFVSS
T1 sequence (P02701 25-152): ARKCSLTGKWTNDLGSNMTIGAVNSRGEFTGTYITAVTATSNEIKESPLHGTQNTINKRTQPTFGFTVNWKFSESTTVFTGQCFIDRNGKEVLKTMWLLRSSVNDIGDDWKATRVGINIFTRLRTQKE

B1: wt 1E2 gene3-Fab fusion on phage (Fab, V domains shown)
VH: EVQLVESGGGLVQPGGSLRLSCTASGFTFSNYWMYWVRQAPGKGLEWVSAINAAGSTYYADSVKGRFTISRDNAKNTLYLQMNSLQSEDTALYYCANLPRWGQGTQVTVSS
VL: QTVVTQEPSLSVSPGGTVTLTCGLSSGSVTSGNYPGWYQQKPGQAPRTLIYNTNSRYSGVPNRFSGSISGNKAALTITGAQPEDEADYYCAVYIGSSSYPVVFGGGTHLTVLG
notes: crude phage extract; also called wt 1E2 (phage)
binding result (neutravidin): no binding

B2: hum 1E2 gene3-Fab fusion on phage (Fab, V domains shown)
VH: B1 VH with T23A, A74S, Q86R, S87A, L92V, Q106L
VL: B1 VL with L10F, K41T, Y57S, N62D, S69L, P82A, E83D, A86S, H108K
notes: also called fully humanized 1E2
binding result (neutravidin): no binding

B3: safe variant 1E2 gene3-Fab fusion on phage (Fab, V domains shown)
VH: B1 VH with T23A, A74S, L92V
VL: B1 VL with L10F, Y57S, N62D, S69L, E83D, A86S
notes: The text says 'partially humanized V lambda fused to human C lambda and CH1'; also called safe 1E2
binding result (neutravidin): no binding

B4: Fab 1C3 (Fab, part only; not given: lambda light chain, V domains shown, not shown: a dimerising Fc or GST)
VH: EVQLVESGGGLVQPGGSLRLSCAASGFTFSSYWMYWVRQAPGKGLEWVSAINTGGGRTYYADSVKGRFTISRDNAKNTLYLQMNSLKSEDTAVYYCAKGTSADGSSWYVPADPYDYWGQGTQVTVSS
IC50 in the bioassay (human IL-1 Beta (human) [1]): 3 µg/mL | concentration at which competition is seen (human IL-1 Beta (human) [2]): > 50 µg/mL | OD signal in the competition assay (human IL-1 Beta (human) [3]): 0.386 OD

B5: wt 1F2 gene3-Fab fusion on phage (Fab, V domains shown)
VH: EVQLVESGGGLVQPGGSLRLSCAASGFTFSTYAMSWVRQAPGKGPEWVSGINTGGGSTGYADSVKGRFTISRDNAKNTLYLQMNSLKPEDTAVYYCAKDWMATTPWGQGTQVTVSS
VL: QAVVTQEPSLSVSPGGTVTLTCGLSSGSVTTNNYPGWFQQTPGQAPRTLIYNTNNRHSGVPSRFSGSISGNKAALTITGAQPEDEADYYCALYMSSGSNNAVFGGGTHLTVLG
binding result (neutravidin): no binding

B6: safe variant 1F2 gene3-Fab fusion on phage (Fab, V domains shown)
VH: B5 VH with V5L, A75S, K87R
VL: B5 VL with A2T, L10F, S69L, P82A, E83D, A86S, H108K
notes: The text says 'partially humanized V lambda fused to human C lambda and CH1'; the result sentence speaks of back mutations in both VL and VH, so the safe VH is used; also called safe 1F2; partially humanized 1F2
binding result (neutravidin): no binding

B7: hum 1F2 gene3-Fab fusion on phage (Fab, V domains shown)
VH: B5 VH with V5L, P45L, A75S, K87R, P88A, Q111L
VL: B5 VL with A2T, L10F, F38Y, H57S, S62D, S69L, P82A, E83D, A86S, H108K
notes: also called fully humanized 1F2
binding result (neutravidin): no binding

B8: Fab 1B3 (Fab, part only; not given: lambda light chain, V domains shown, not shown: a dimerising Fc or GST)
VH: EVQLVQSGAELRNPGASVKVSCKASGYTFTSYYIDWVRQAPGQGLEWMGRIDPEDGGTKYAQKFQGRVTFTADTSTSTAYVELSSLRSEDTAVYYCARSGRYELDYWGQGTQVTVSS
OD signal in the competition assay (human IL-1 Beta (human) [3]): 0.444 OD

B9: Fab 1G1 (Fab, part only; not given: light chain, V domains shown, part only)
VH: B8 VH with I34T, G57D, S84T, A97L, R101A
OD signal in the competition assay (human IL-1 Beta (human) [3]): 0.498 OD

B10: Fab 1A1 (Fab, part only; not given: lambda light chain, V domains shown, not shown: a dimerising Fc or GST)
VH: EVQLVESGGGLVQPGGSLRLSCAASGFTFDDYAMSWVRQAPGKGLEWVSTISWNGGATYYAESMKGRFTISRDNAKNTLYLQMNSLKSEDTAVYYCAKPYYSDYVGVEYDYWGQGTQVTVSS
IC50 in the bioassay (human IL-1 Beta (human) [1]): 10 µg/mL | IC50 (human IL-1 Beta (human) [2]): 12 µg/mL | OD signal in the competition assay (human IL-1 Beta (human) [3]): 0.205 OD
